From US7262177B2, “Conjugates of glycosylated/galactosylated peptide, bifunctional linker, and nucleotidic monomers/polymers, and related compositions and methods of use” (priority 2000, dated 2007)

How the values were obtained:
[1] = Serum stability of 35S labeled po 1-mer conjugate, PAGE analysis; type: in vitro ADME; settings: human serum, 37° C.
Procedure: Studies were carried out at physiological conditions. The analyses were accomplished using reversed-phase HPLC and PAGE methods. The raw data are presented in table format (Tables 1, 2 and 3). The serum half-life calculated is t1/2=1/k (0.693), derived from the [A]=[A0]e^−kt, where [A0] is the original amount of substrate, [A] is the measured substrate level, t is time (min), and k is the first-order rate constant.
Reaction Conditions: 2 μl of human serum were added to 200,000 cpm of dry ^35S labeled po 1-mer conjugate. Radiolabeled conjugate was incubated at 37° C. in the presence of this serum for the allotted time periods (15 min, 30 min, 60 min, 120 min, 240 min). The reaction mixture was diluted with 2 μl of H2O, then 4 μl of loading buffer. The degradation pattern was observed through autoradiography of a 20% polyacylamide gel (0.75 mm) run at 800 V for 90 min. Bands were quantified through the use of a Fujix BAS 2000 Phosphorimager (Table 3).

[2] = system: TSU carcinoma cells; test: Viability of TSU carcinoma cells; type: cell-based, human; settings: TSU carcinoma cells treated with conjugate
[3] = Hepatic and systemic toxicity, 4 weekly bolus injections; type: in vivo, CD-1 mice
Procedure: Mice have previously been used as in vivo models for 5FU drug testing in the following manner (Ain et al., J. Surg. Res., 57, 366-372 (1994); Wang et al., Cancer Res., 50, 869s-872s (1990)). The plasma profiles, induced toxicities and pharmacokinetics of 5FU in mice are similar to those observed in humans (Wagner et al., Cancer Res., 46, 1499-1506 (1986)). Both po 1-mer and 5FdU were administered on a clinically relevant regimen of 4 weekly bolus injections via the tail vein (Anfield et al., Cancer, 39, 34-40 (1977)). The starting doses of 10 mg/kg and 15 mg/kg were determined by extrapolation of the in vitro data. One week after each injection, a cohort of animals (6 animals/dose/treatment) was sacrificed. Blood and liver samples were collected from each animal and assayed for hepatic and systemic toxicities. The blood sample analyses included a Superchem panel and a total blood count. The Superchem panel assayed blood levels of glucose, urea nitrogen (BUN), creatinine, total protein, albumin, both conjugated and unconjugated bilirubin, triglycerides, SGOT, SGPT, triglycerides, CPK, alkaline phosphatase, and peripheral blood differentials. Total blood counts were analyzed for hematocrit, as well as both red and white blood cell counts. Liver samples were subjected to histological analysis in order to determine changes in morphology, architecture and increase in necrotic tissue as compared to the controls. Any acute or sustained increases in blood counts or serum components indicative of organ damage in comparison with the untreated control was taken to be indicative of a toxic response. In addition, the weights of each cohort were recorded throughout the treatment period as an indication of their clinical condition.

[4] = 10 mg/kg weekly, WEEK 6 (treatment stopped for two weeks)

## CC(=O)N[C@H]1[C@H](OCCCCCCNC(=O)CC[C@H](NC(=O)CC[C@H](NC(=O)[C@H](Cc2ccc(O)cc2)NC(=O)C2CCC(CN3C(=O)CC(SCCCCCCOP(=O)(O)OC[C@H]4O[C@@H](n5cc(F)c(=O)[nH]c5=O)C[C@@H]4O)C3=O)CC2)C(=O)NCCCCCCO[C@@H]2O[C@H](CO)[C@H](O)[C@H](O)[C@H]2NC(C)=O)C(=O)NCCCCCCO[C@@H]2O[C@H](CO)[C@H](O)[C@H](O)[C@H]2NC(C)=O)O[C@H](CO)[C@H](O)[C@@H]1O (stereo partly shown) [po 1-mer, YEE(ahGalNAc)3-SMCC-poFU]
[1]; 0 min
  Normalized Area: 0
  Pixel Area: 42.57
  Standardized Area: 1
[1]; 15 min
  Normalized Area: 0.1486
  Pixel Area: 57.43
  Standardized Area: 0.8514
[1]; 30 min
  Normalized Area: 0.2404
  Pixel Area: 66.61
  Standardized Area: 0.7596
[1]; 60 min
  Normalized Area: 0.3435
  Pixel Area: 76.92
  Standardized Area: 0.6565
[1]; 120 min
  Normalized Area: 0.39
  Pixel Area: 81.57
  Standardized Area: 0.61
[1]; 240 min
  Normalized Area: 0.3756
  Pixel Area: 80.13
  Standardized Area: 0.6244
[2]
  viability of cells: not affected
[3]; 10 mg/kg weekly
  histological analysis of liver: mild hepatocellular swelling
  increased total bilirubin and gamma-glutamyl transferase (GT) levels: not observed
  lactate dehydrogenase levels: increased
[3]; 10 mg/kg weekly, WEEK 1
  BUN: 24.66 mg/dL
  Calcium: 7.56 mg/dL
  Chloride: 106.33 meq/l
  MCH: 17.2 pg
  MCV: 51.5 fL
  Potassium: 11.63 meq/l
  SGOT: 335.5 u/l
  SGPT: 46.5 u/l
  Sodium: 155.6 meq/l
  WBC: 4.86 thds/cmm
[3]; 10 mg/kg weekly, WEEK 2
  BUN: 18 mg/dL
  Calcium: 7.75 mg/dL
  Chloride: 95 meq/l
  MCH: 15.6 pg
  MCV: 51 fL
  Potassium: 11.1 meq/l
  SGOT: 911.33 u/l
  SGPT: 110 u/l
  Sodium: 142.5 meq/l
  WBC: 3.16 thds/cmm
[3]; 10 mg/kg weekly, WEEK 3
  BUN: 22 mg/dL
  Calcium: 8.85 mg/dL
  Chloride: 87.5 meq/l
  MCH: 16.56 pg
  MCV: 56 fL
  Potassium: 8.9 meq/l
  SGOT: 1174 u/l
  SGPT: 177 u/l
  Sodium: 152.5 meq/l
  WBC: 2.8 thds/cmm
[3]; 10 mg/kg weekly, WEEK 4
  BUN: 21.33 mg/dL
  Calcium: 6.5 mg/dL
  Chloride: 86.66 meq/l
  MCH: 16.42 pg
  MCV: 52.83 fL
  Potassium: 12.46 meq/l
  SGOT: 1549.5 u/l
  SGPT: 125.66 u/l
  Sodium: 161.6 meq/l
  WBC: 1.83 thds/cmm
[3]; [4]
  BUN: 22.44 mg/dL
  Calcium: 7.7 mg/dL
  Chloride: 89.72 meq/l
  MCH: 16.1 pg
  MCV: 51.18 fL
  Potassium: 10.82 meq/l
  SGOT: 1211.61 u/l
  SGPT: 137.55 u/l
  Sodium: 162.22 meq/l
  WBC: 3.03 thds/cmm
[3]; 10 mg/kg weekly, four week period
  weight gain: progressive and similar to the saline-treated control mice
[3]; 15 mg/kg weekly
  complete blood count: platelets: mild thrombocytopenia
  histological analysis of liver: mild hepatocellular swelling and limited subcapsular fibrosis in one mouse
  increased total bilirubin and gamma-GT levels: not observed
  lactate dehydrogenase levels: increased
  weight gain: somewhat less than the untreated control mice
[3]; 15 mg/kg weekly, WEEK 1
  BUN: 26 mg/dL
  Calcium: 9.15 mg/dL
  Chloride: 101.33 meq/l
  MCH: 16.83 pg
  MCV: 50 fL
  Potassium: 8.9 meq/l
  SGOT: 730 u/l
  SGPT: 67.5 u/l
  Sodium: 154.5 meq/l
  WBC: 2 thds/cmm
[3]; 15 mg/kg weekly, WEEK 3
  BUN: 22 mg/dL
  Calcium: 7.73 mg/dL
  Chloride: 87.5 meq/l
  MCH: 16.56 pg
  MCV: 56.556 fL
  Potassium: 8.7 meq/l
  SGOT: 1194 u/l
  SGPT: 120.3 u/l
  Sodium: 156.5 meq/l
  WBC: 2.1 thds/cmm
[3]; 15 mg/kg weekly, WEEK 4
  BUN: 20.33 mg/dL
  Calcium: 6.7 mg/dL
  Chloride: 81.66 meq/l
  MCH: 14.2 pg
  MCV: 51 fL
  Potassium: 13.46 meq/l
  SGOT: 1669.5 u/l
  SGPT: 123.66 u/l
  Sodium: 165.6 meq/l
  WBC: 1.85 thds/cmm
[3]; 10 and 15 mg/kg weekly
  overall toxicity: mild at best
